Source: publication PMC2132610 (The Journal of Cell Biology, 1997)

B1: wild-type alcohol oxidase of Pichia pastoris (AOX-WT) (enzyme, P. pastoris, UniProt F2QY27 1-663, looked up)
chain: MAIPEEFDILVLGGGSSGSCIAGRLANLDHSLKVGLIEAGENNLNNPWVYLPGIYPRNMKLDSKTASFYTSNPSPHLNGRRAIVPCANVLGGGSSINFMMYTRGSASDYDDFQAEGWKTKDLLPLMKKTETYQRACNNPDIHGFEGPIKVSFGNYTYPVCQDFLRASESQGIPYVDDLEDLVTAHGAEHWLKWINRDTGRRSDSAHAFVHSTMRNHDNLYLICNTKVDKIIVEDGRAAAVRTVPSKPLNPKKPSHKIYRARKQIVLSCGTISSPLVLQRSGFGDPIKLRAAGVKPLVNLPGVGRNFQDHYCFFSPYRIKPQYESFDDFVRGDAEIQKRVFDQWYANGTGPLATNGIEAGVKIRPTPEELSQMDESFQEGYREYFEDKPDKPVMHYSIIAGFFGDHTKIPPGKYMTMFHFLEYPFSRGSIHITSPDPYAAPDFDPGFMNDERDMAPMVWAYKKSRETARRMDHFAGEVTSHHPLFPYSSEARALEMDLETSNAYGGPLNLSAGLAHGSWTQPLKKPTAKNEGHVTSNQVELHPDIEYDEEDDKAIENYIREHTETTWHCLGTCSIGPREGSKIVKWGGVLDHRSNVYGVKGLKVGDLSVCPDNVGCNTYTTALLIGEKTATLVGEDLGYSGEALDMTVPQFKLGTYEKTGLARF
B2: AOX with the COOH-terminal LARF replaced by RSC (AOX–RSC, pHWO41) (enzyme, P. pastoris)
chain: MAIPEEFDILVLGGGSSGSCIAGRLANLDHSLKVGLIEAGENNLNNPWVYLPGIYPRNMKLDSKTASFYTSNPSPHLNGRRAIVPCANVLGGGSSINFMMYTRGSASDYDDFQAEGWKTKDLLPLMKKTETYQRACNNPDIHGFEGPIKVSFGNYTYPVCQDFLRASESQGIPYVDDLEDLVTAHGAEHWLKWINRDTGRRSDSAHAFVHSTMRNHDNLYLICNTKVDKIIVEDGRAAAVRTVPSKPLNPKKPSHKIYRARKQIVLSCGTISSPLVLQRSGFGDPIKLRAAGVKPLVNLPGVGRNFQDHYCFFSPYRIKPQYESFDDFVRGDAEIQKRVFDQWYANGTGPLATNGIEAGVKIRPTPEELSQMDESFQEGYREYFEDKPDKPVMHYSIIAGFFGDHTKIPPGKYMTMFHFLEYPFSRGSIHITSPDPYAAPDFDPGFMNDERDMAPMVWAYKKSRETARRMDHFAGEVTSHHPLFPYSSEARALEMDLETSNAYGGPLNLSAGLAHGSWTQPLKKPTAKNEGHVTSNQVELHPDIEYDEEDDKAIENYIREHTETTWHCLGTCSIGPREGSKIVKWGGVLDHRSNVYGVKGLKVGDLSVCPDNVGCNTYTTALLIGEKTATLVGEDLGYSGEALDMTVPQFKLGTYEKTGRSC

Target: the molecule itself
Assay: sucrose velocity gradient sedimentation

| Protein | stoichiometry N |
| --- | --- |
| B1 | 8 |
| B2 | 8 |
